In the supplement of paper PMC10724198:
± gives the standard deviation of the averaged measurements.

System: Saccharomyces cerevisiae
Test: protein stability index of tFT-peptide fusion (C-terminal peptide) (PSI (0-1 scale)); higher = more stable (slower turnover)
Settings: genetic background: wild type; temperature: 30 C
Description: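 Multiplexed protein stability (MPS) profiling in S. cerevisiae. Random 12-aa peptides (tFT-X12 library) are fused to the C-terminus of a sfGFP-mCherry tandem fluorescent timer, after mCherry and a GGGS linker. Cells are FACS-sorted into 8 mCherry/sfGFP bins and deep-sequenced. The protein stability index (PSI) is the read-weighted bin average, scaled from 0 (unstable) to 1 (stable). Only peptides with >10 reads are reported; cells were grown at 30 °C in SC-His with glucose.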
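Note: PSI is a weighted mean of sequencing reads over stability bins, variants kept only with over 10 reads, mCherry proximal and sfGFP distal, peptide attached via GGGS linker.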

Row | Sequence | protein stability index
1 | RACGVSMRIKGG | 0.695 ± 0.033
2 | YMTWRGCGWSGG | 0.697 ± 0.1
3 | LPHLSPPPLAQL | 0.686 ± 0.033
4 | GVRGCGMTADVF | 0.668 ± 0.008
5 | DMVSLGLAILIT | 0.492 ± 0.021
6 | PPRLDLPFPLSR | 0.747 ± 0.08
7 | IHLQGSSYRSLT | 0.68 ± 0.14
8 | SCPPLKYNNKTY | 0.66 ± 0.015
9 | PPPPSCPHSAPL | 0.637 ± 0.008
10 | PPPTLPPPPPAL | 0.711 ± 0.033
11 | SLWVSLSCFRVV | 0.588 ± 0.028
12 | SSVNRTADGTKP | 0.69 ± 0.02
13 | CDRVIGSRGVTY | 0.688 ± 0.0071
14 | SHEARMVCGSSV | 0.63331 ± 0.00024
15 | SCYLLDFGCIWV | 0.646 ± 0.0083
16 | LSPPVLLAPPQH | 0.59 ± 0.0098
17 | VRLWLTLQQVDF | 0.686 ± 0.085
18 | YFDVFLRLAFSR | 0.655 ± 0.04
19 | RKKIKRKNNKEK | 0.685 ± 0.052
20 | LKSSREKRDMIG | 0.578 ± 0.019
21 | ACPAPPPPQLPR | 0.593 ± 0.031
22 | DFIAGGSRPFLV | 0.715 ± 0.015
23 | SRNFSIQILRER | 0.659 ± 0.019
24 | NYYLPLESCTIG | 0.664 ± 0.03
25 | DAIHSPALLASP | 0.715 ± 0.092

Row | Sequence | protein stability index
26 | VRRSNKTIKRKK | 0.746 ± 0.1
27 | RPPPGTPPGWSP | 0.73 ± 0.028
28 | LTVGPCQPAGEA | 0.776 ± 0.065
29 | RKQKRGSKKKKQ | 0.721 ± 0.049
30 | LGPPLLDLASLR | 0.719 ± 0.035
31 | KKEEQEKKNRNK | 0.711 ± 0.027
32 | LAPPPAAPLSHS | 0.697 ± 0.018
33 | PPYAPPDHPPFR | 0.699 ± 0.03
34 | GDISILGSEYSM | 0.728 ± 0.0091
35 | GLQFRPFCVLEL | 0.634 ± 0.013
36 | TGIDLPHFVSLF | 0.658 ± 0.088
37 | RDSLEKCLFEVQ | 0.703 ± 0.05
38 | TEWIRGTAVNSS | 0.701 ± 0.023
39 | SVTDCTADHASV | 0.653 ± 0.056
40 | LLPPSPSSRPLF | 0.723 ± 0.02
41 | EEVKKRTLKVID | 0.738 ± 0.021
42 | SACVEQVHLRWF | 0.642 ± 0.092
43 | GAAVWGPLCVWL | 0.6534 ± 0.0052
44 | SSRRVGRWGGLG | 0.618 ± 0.11
45 | VQASESGLRAGV | 0.686 ± 0.0092
46 | VPPSCPRPPTAP | 0.676 ± 0.064
47 | ISYLSILTSCPW | 0.65423 ± 0.00026
48 | GTRGVFEVCMDG | 0.704 ± 0.025
49 | PTPTTNPTHSAP | 0.695 ± 0.048
50 | STGSAISSLSDR | 0.68 ± 0.11

Row | Sequence | protein stability index
51 | VGFCFDGVHFRA | 0.639 ± 0.016
52 | CGGRKTPPPPRH | 0.688 ± 0.054
53 | SVTLYLTPPSLT | 0.67 ± 0.062
54 | PPPLSPSTSDHP | 0.652 ± 0.019
55 | VFRFGVCDDWCV | 0.765 ± 0.018
56 | APACVAGGGQRL | 0.681 ± 0.081
57 | RLLDLRLYVGKG | 0.618 ± 0.012
58 | SHLLPPPLTPAS | 0.673 ± 0.031
59 | LAPPTTAGPRPP | 0.599 ± 0.01
60 | FFSSSDRQLSNQ | 0.716 ± 0.041
61 | ESLVIIIAGSMF | 0.567 ± 0.15
62 | PGGLHHGCSTPA | 0.724 ± 0.0087
63 | PEVRTNKQHQER | 0.746 ± 0.055
64 | FGYGLPFPERVE | 0.781 ± 0.046
65 | HPSPPPPPPFPT | 0.748 ± 0.038
66 | PGPHGVVPTGNE | 0.6666 ± 0.0056
67 | PPASSPRRPTPP | 0.675 ± 0.011
68 | CRGPTQFAGPAP | 0.68 ± 0.088
69 | GVFEGLVYGGLC | 0.719 ± 0.012
70 | RPRVETGGLPWV | 0.703 ± 0.029
71 | DMHTPATDSPLP | 0.783 ± 0.016
72 | LSRTAFRPSLTL | 0.746 ± 0.024
73 | LHHGMVDDCIKK | 0.70112 ± 0.00044
74 | GVGAERCFVGVV | 0.681 ± 0.077
75 | PRDSRPLPAYSL | 0.591 ± 0.028

Row | Sequence | protein stability index
76 | FGGGGLAPSLQS | 0.602 ± 0.044
77 | KEVNEDIDKAKS | 0.782 ± 0.18
78 | GLSPPLCSTPSR | 0.736 ± 0.0092
79 | RVLVSPPPPLPS | 0.688 ± 0.026
80 | NQTVEQPLPTSL | 0.708 ± 0.042
81 | PPPPPPPRALNL | 0.687 ± 0.038
82 | HPPPETEPIPVA | 0.574 ± 0.066
83 | SPALPPPAPRLL | 0.719 ± 0.061
84 | AGGPRVRGAAGR | 0.698 ± 0.055
85 | CLPSLPPFPASL | 0.738 ± 0.064
86 | HRLTGMRKRGRG | 0.658 ± 0.066
87 | PPTPPRLHRSPP | 0.69 ± 0.11
88 | LPSLDSVCLLFP | 0.685 ± 0.026
89 | GTGSEGVALRSG | 0.6697 ± 0.001
90 | KIDEQNKNKMGM | 0.615 ± 0.082
91 | PRRPHDPFPAAP | 0.686 ± 0.017
92 | VYLVVSSSMDYR | 0.633 ± 0.078
93 | PITFPPSLPPPP | 0.666 ± 0.045
94 | EGLPGGLRGCLR | 0.687 ± 0.021
95 | PSPASPPPPPLP | 0.714 ± 0.2
96 | GGPVDGSVDRGR | 0.627 ± 0.017
97 | GRDFASNFRQLG | 0.718 ± 0.026
98 | TLGLTLSAFALT | 0.635 ± 0.043
99 | STAELSNSLIGR | 0.703 ± 0.033
100 | HAARFRLPASPC | 0.672 ± 0.051

Row | Sequence | protein stability index
101 | NQHNARTRWLCP | 0.645 ± 0.017
102 | AGPPRGVCARWC | 0.635 ± 0.011
103 | PDSHPPAPPSPP | 0.704 ± 0.031
104 | VYGGFGGGRWVI | 0.702 ± 0.087
105 | IVSNLILSKRCN | 0.652 ± 0.064
106 | EGSSGVLESRAG | 0.671 ± 0.026
107 | IKEITKENNRNE | 0.708 ± 0.083
108 | RYVSCLSIPCLL | 0.6373 ± 0.0018
109 | ALGHAKDSVYGM | 0.679 ± 0.041
110 | PSPLPLLPPPRP | 0.645 ± 0.037
111 | LSYWPDARRPVL | 0.643 ± 0.046
112 | LPSPPRHPSAPR | 0.683 ± 0.022
113 | AGGGGGRGSAGA | 0.711 ± 0.011
114 | PPSPPPPPAHPP | 0.597 ± 0.01
115 | FGLPFPSNIVSG | 0.757 ± 0.024
116 | GGRALVGGRRHG | 0.756 ± 0.14
117 | PPPRTFSSSFHV | 0.6366 ± 0.0043
118 | TGWRFVRSKGGS | 0.741 ± 0.045
119 | VLGCSVIADSCR | 0.637 ± 0.053
120 | NKREYYWINLEC | 0.562 ± 0.014
121 | PRPGGHLFLVFS | 0.679 ± 0.033
122 | TVPLPPPPFLDS | 0.772 ± 0.042
123 | FWMIYPHLLTPP | 0.629 ± 0.036
124 | DLERRKGTGVWR | 0.6366 ± 0.0051
125 | PPLPPLPSPSPP | 0.721 ± 0.092

Row | Sequence | protein stability index
126 | HPFARGPLSRHP | 0.7 ± 0.081
127 | TSAPPPPPPPPP | 0.608 ± 0.021
128 | ASPFCRPNRHLL | 0.648 ± 0.031
129 | LYMSRYLQLNFG | 0.653 ± 0.005
130 | GLFAPVGLGFGL | 0.724 ± 0.012
131 | GFCSVIVLSLLL | 0.487 ± 0.041
132 | GGGRGDWALRGG | 0.751 ± 0.011
133 | RGCSAVEKARPC | 0.622 ± 0.0067
134 | RVYFGRPRSIVL | 0.656 ± 0.025
135 | PPAPRPRSPSPL | 0.719 ± 0.0085
136 | KNRKSYTINSRK | 0.656 ± 0.055
137 | KKKKKKRIREKR | 0.721 ± 0.048
138 | RVQAVTNKVAAR | 0.692 ± 0.012
139 | PPALSLPAPLLP | 0.6592 ± 0.0039
140 | WQIRREMFECGL | 0.677 ± 0.025
141 | RPGPRAASADCP | 0.72 ± 0.025
142 | LWGRAVYETFQM | 0.67 ± 0.063
143 | GVWCFPVGVFRA | 0.529 ± 0.011
144 | FGSSLVVSMVFD | 0.704 ± 0.015
145 | KKQHTKKKKKKR | 0.752 ± 0.041
146 | GANSILRDIEFL | 0.69 ± 0.05
147 | LPPPPPAFLDSF | 0.691 ± 0.065
148 | ICSVHFLFFPLL | 0.573 ± 0.014
149 | VYFLRLERVPSF | 0.696 ± 0.017
150 | GRSQGIWVSRGE | 0.683 ± 0.028

Row | Sequence | protein stability index
151 | GDRGTLTPLRRQ | 0.678 ± 0.0073
152 | SPLSPAVPSTAL | 0.742 ± 0.056
153 | SSTVGKEGTSRI | 0.69 ± 0.048
154 | KKKNKENKKKKK | 0.737 ± 0.023
155 | SGTLYELNAVVV | 0.644 ± 0.016
156 | VGLLWEYVRLDG | 0.7079 ± 0.0036
157 | EGRRGVGGAWEG | 0.6573 ± 0.0037
158 | QAGKPAIHHAAL | 0.682 ± 0.0034
159 | RQDGSPREGIRH | 0.713 ± 0.04
160 | RSLPSSPTPPED | 0.755 ± 0.081
161 | PWDPDTPIPPRP | 0.716 ± 0.012
162 | VDFLLRDPPGPS | 0.7201 ± 0.0065
163 | FGCRARYDLVLI | 0.641 ± 0.098
164 | LGFCRLVFGVVG | 0.522 ± 0.01
165 | RVDRVFGGFGGS | 0.724 ± 0.14
166 | VIMAEVLCVSNL | 0.508 ± 0.0071
167 | NLETVAENMFLA | 0.71 ± 0.053
168 | VVGPVLTCAVRF | 0.617 ± 0.076
169 | PPIPPSAPLCPP | 0.688 ± 0.014
170 | KVSCGGAGDSLG | 0.693 ± 0.022
171 | FVSGSVCPLLPP | 0.667 ± 0.026
172 | CVCHWTALCIQI | 0.512 ± 0.013
173 | VGPPWSISLSII | 0.636 ± 0.013
174 | LSASHVMSLTNL | 0.698 ± 0.028
175 | WVKGRVKIEGGQ | 0.68 ± 0.042

Row | Sequence | protein stability index
176 | PATTVAKGSHQF | 0.717 ± 0.026
177 | FSKSRLRNLKLK | 0.655 ± 0.016
178 | SLEQRPLQRPPS | 0.6941 ± 0.0063
179 | APPPRPLKLFPP | 0.611 ± 0.028
180 | DLSMIPEWICIV | 0.547 ± 0.054
181 | VDTPPPHHSPLL | 0.733 ± 0.068
182 | YDCPLPPSGLTI | 0.688 ± 0.036
183 | GSFPRLPPSKSF | 0.724 ± 0.14
184 | LYSSPSLQSPNP | 0.613 ± 0.021
185 | VRWGVGVGVGWD | 0.682 ± 0.057
186 | LVYPSPPLQPPP | 0.649 ± 0.013
187 | SGRIHLLHSPWV | 0.712 ± 0.052
188 | WVGGGGGPSGVV | 0.733 ± 0.042
189 | FVFWCFGSFCSC | 0.553 ± 0.015
190 | TTTRSDALPRGG | 0.713 ± 0.024
191 | LSCRGVTIRYCW | 0.683 ± 0.012
192 | FGGFVPSSQCLI | 0.712 ± 0.018
193 | TCTIQSEDFHEI | 0.707 ± 0.063
194 | DKRHQSALSFFI | 0.736 ± 0.0089
195 | GCFGLLVSSLFS | 0.7111 ± 0.0024
196 | RSFFDRLNRSLS | 0.666 ± 0.032
